Measurements: the supplement of paper PMC5998384

Experiments:
[1] = test system: HeLa Kyoto; test: thermal stability score vs G1/S (z-score of summed log2 fold changes over temperatures); higher = more thermally stable than in G1/S
[2] = test system: HeLa Kyoto; test: solubility change mitosis vs G1/S (difference of NP-40 vs SDS log2 ratios) (log2 ratio difference); higher = more soluble in mitosis
[3] = test system: HeLa Kyoto; test: solubility in G1/S (NP-40 vs SDS abundance) (log2 ratio); higher = more soluble; details: cell cycle stage: G1/S
[4] = cell cycle stage: early G1 (4.5 h after nocodazole release)
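For solubility change mitosis vs G1/S (difference of NP-40 vs SDS log2 ratios) in this document: synchronized HeLa Kyoto cells (double thymidine block for G1/S, nocodazole release for mitosis), protein amounts in NP-40 versus SDS lysates quantified by mass spectrometry, three biological replicates.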
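For solubility in G1/S (NP-40 vs SDS abundance) in this document: HeLa Kyoto cells arrested at G1/S by double thymidine block, proteins quantified by TMT10plex mass spectrometry in mild NP-40 versus SDS extracts, three biological replicates.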
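For thermal stability score vs G1/S (z-score of summed log2 fold changes over temperatures) in this document: synchronized HeLa Kyoto cells, proteins quantified by TMT10plex mass spectrometry, three biological replicates, mitosis taken 0.5 h after nocodazole release, G1/S directly after double thymidine block.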

AGRN, sequence (chain, as listed by the source): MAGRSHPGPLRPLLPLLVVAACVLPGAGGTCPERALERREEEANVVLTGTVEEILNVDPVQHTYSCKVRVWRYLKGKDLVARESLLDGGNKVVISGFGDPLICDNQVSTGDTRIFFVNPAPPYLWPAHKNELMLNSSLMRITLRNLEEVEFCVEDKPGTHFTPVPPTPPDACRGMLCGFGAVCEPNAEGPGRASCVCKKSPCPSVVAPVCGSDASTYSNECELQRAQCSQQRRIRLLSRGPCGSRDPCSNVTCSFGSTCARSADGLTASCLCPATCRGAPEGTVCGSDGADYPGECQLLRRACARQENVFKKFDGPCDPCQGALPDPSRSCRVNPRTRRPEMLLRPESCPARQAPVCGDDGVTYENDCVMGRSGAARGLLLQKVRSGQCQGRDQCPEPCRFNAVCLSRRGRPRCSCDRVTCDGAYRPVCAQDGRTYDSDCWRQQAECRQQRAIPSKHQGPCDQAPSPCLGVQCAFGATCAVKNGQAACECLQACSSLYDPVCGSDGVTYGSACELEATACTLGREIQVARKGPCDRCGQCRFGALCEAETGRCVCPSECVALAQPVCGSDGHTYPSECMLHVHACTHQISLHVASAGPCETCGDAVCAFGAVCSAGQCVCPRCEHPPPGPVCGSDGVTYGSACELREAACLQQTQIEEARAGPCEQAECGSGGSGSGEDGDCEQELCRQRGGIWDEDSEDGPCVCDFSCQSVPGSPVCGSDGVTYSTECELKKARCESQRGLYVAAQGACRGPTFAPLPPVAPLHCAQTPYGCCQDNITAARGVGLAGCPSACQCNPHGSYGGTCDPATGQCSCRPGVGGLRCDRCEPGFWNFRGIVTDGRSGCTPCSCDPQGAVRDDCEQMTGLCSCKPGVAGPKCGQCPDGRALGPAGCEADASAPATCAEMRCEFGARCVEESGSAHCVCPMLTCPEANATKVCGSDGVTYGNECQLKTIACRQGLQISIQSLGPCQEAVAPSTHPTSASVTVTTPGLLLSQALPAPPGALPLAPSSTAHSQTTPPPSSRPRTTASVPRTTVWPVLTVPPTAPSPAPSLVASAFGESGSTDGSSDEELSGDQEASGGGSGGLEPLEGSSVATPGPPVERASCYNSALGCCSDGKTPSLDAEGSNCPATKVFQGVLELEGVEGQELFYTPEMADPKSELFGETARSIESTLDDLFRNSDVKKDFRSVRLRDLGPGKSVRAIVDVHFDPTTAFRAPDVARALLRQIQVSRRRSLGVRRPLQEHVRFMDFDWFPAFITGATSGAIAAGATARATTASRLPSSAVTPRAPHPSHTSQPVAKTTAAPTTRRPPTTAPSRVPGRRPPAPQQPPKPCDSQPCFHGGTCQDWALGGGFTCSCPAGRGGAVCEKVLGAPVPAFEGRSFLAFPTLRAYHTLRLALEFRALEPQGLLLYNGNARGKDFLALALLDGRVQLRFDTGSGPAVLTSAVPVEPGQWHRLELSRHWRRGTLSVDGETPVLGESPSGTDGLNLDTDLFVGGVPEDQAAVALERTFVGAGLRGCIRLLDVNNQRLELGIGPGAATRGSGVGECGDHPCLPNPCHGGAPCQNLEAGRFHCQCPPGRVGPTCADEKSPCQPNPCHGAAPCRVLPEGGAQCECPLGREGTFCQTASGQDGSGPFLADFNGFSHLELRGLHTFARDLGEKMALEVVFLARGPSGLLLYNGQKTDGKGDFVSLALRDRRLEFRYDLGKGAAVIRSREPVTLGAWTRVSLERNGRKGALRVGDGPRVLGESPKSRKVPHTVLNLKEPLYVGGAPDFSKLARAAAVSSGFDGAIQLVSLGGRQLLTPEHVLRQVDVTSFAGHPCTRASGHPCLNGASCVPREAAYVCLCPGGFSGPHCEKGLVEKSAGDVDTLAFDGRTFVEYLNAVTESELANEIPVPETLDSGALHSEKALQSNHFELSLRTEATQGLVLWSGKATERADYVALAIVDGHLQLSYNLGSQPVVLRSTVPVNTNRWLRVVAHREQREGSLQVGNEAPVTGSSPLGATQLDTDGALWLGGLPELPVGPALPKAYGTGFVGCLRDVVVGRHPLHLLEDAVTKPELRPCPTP
LMTK2, sequence (chain, as listed by the source): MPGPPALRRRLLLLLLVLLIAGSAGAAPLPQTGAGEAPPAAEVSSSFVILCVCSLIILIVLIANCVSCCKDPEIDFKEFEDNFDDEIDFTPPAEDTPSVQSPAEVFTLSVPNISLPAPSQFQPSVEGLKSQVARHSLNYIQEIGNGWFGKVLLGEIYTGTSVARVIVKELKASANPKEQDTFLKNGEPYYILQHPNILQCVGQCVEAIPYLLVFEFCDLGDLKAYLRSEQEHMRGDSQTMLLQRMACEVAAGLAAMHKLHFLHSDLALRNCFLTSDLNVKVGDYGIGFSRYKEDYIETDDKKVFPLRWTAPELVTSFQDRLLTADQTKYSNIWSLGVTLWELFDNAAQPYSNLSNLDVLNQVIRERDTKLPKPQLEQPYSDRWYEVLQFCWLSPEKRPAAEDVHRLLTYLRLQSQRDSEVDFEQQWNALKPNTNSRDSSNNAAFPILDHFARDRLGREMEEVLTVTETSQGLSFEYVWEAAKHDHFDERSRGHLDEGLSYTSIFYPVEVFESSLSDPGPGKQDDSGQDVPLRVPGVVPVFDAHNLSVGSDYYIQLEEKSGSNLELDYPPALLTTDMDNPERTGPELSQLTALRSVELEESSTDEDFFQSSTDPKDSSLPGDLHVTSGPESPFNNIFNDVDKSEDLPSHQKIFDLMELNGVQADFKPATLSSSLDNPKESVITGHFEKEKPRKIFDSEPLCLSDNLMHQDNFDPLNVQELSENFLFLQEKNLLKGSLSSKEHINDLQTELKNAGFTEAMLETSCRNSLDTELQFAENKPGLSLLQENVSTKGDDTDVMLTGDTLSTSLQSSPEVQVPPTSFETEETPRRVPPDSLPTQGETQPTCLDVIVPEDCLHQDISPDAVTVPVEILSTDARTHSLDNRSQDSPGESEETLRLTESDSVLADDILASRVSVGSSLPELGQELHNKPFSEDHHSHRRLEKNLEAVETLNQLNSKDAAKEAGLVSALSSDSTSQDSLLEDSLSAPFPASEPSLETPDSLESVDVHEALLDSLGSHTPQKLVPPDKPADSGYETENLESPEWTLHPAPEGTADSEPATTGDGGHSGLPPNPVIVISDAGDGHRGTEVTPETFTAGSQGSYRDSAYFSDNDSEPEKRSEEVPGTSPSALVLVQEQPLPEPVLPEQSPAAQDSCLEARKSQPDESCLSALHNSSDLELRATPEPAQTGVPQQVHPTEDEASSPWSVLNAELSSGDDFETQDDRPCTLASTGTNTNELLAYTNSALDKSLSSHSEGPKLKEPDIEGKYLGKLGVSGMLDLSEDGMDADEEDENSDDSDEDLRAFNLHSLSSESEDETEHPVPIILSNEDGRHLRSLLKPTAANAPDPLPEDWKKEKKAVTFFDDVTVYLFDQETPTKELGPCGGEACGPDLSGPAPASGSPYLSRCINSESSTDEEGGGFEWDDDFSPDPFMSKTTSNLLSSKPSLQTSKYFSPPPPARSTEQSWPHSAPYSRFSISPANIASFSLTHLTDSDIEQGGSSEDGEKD
ATRN, sequence (chain, as listed by the source): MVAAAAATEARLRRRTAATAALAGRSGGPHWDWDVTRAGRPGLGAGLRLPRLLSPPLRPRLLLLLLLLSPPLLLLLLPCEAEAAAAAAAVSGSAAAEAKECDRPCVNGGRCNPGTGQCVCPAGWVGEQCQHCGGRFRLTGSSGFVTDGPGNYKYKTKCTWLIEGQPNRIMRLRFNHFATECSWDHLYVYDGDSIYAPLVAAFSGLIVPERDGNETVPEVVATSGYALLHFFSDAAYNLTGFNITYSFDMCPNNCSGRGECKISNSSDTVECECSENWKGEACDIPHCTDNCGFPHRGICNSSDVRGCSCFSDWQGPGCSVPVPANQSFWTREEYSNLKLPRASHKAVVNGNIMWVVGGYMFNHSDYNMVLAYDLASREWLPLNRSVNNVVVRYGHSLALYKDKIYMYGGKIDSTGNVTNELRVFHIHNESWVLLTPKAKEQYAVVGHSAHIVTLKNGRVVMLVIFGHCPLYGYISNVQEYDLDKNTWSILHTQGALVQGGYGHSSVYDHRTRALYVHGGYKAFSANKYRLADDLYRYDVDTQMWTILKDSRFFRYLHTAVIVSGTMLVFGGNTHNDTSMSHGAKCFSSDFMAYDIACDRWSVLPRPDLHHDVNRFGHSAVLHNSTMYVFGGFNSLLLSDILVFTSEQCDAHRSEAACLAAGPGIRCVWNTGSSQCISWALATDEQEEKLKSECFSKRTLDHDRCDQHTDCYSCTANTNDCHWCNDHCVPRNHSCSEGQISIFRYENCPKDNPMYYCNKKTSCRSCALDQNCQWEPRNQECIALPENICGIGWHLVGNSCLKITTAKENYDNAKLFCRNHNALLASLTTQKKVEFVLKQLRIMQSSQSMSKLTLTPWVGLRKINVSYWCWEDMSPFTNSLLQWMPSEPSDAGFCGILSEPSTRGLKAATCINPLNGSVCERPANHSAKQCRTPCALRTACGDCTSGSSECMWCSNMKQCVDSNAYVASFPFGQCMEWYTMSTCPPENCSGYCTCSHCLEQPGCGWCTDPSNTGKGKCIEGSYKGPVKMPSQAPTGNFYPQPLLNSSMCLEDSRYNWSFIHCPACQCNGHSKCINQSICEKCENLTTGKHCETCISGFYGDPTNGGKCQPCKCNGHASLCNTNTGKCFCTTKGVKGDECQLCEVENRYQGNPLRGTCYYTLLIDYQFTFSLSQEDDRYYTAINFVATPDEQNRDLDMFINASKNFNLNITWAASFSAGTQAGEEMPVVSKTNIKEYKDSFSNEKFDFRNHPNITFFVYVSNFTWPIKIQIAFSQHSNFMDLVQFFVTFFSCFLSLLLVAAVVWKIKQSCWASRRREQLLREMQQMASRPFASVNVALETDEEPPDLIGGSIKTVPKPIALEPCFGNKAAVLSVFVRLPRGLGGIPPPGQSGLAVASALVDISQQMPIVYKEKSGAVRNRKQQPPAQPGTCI

Substance | thermal stability score [1, 4] | thermal stability score ([1]; cell cycle stage: mitosis) | solubility change mitosis (log2) [2] | solubility in G1/S (log2) [3]
AGRN | 3.71 | 4.6 | -0.0384 | –
ALG12 | – | – | -0.0892 | -0.268
ARAP3 | – | – | -0.158 | 0.016
ARHGEF11 | – | – | -0.0196 | -0.0113
ATG2A | – | – | -0.036 | -0.135
ATRN | – | – | -0.041 | 0.238
BCORL1 | – | – | 0.348 | -0.267
CBWD1 | – | – | -0.0771 | 0.26
CEP290 | – | – | 0.0705 | 0.253
CIC | – | – | -0.0541 | -0.00578
CLK3 | – | – | 0.423 | -1.26
DDX60 | – | – | -0.0365 | -0.517
DOCK4 | – | – | 0.0146 | -0.259
LMTK2 | – | – | -0.217 | -0.313
MAAAAASGAGGAAGAGTGGAGPAGRLLPPPAPGSPAAPAAVSPAAGQPRPPAPASRGPMPARIGYYEIDRTIGKGNFAVVKRATHLVTKAKVAIKIIDKTQLDEENLKKIFREVQIMKMLCHPHIIRLYQVMETERMIYLVTEYASGGEIFDHLVAHGRMAEKEARRKFKQIVTAVYFCHCRNIVHRDLKAENLLLDANLNIKIADFGFSNLFTPGQLLKTWCGSPPYAAPELFEGKEYDGPKVDIWSLGVVLYVLVCGALPFDGSTLQNLRARVLSGKFRIPFFMSTECEHLIRHMLVLDPNKRLSMEQICKHKWMKLGDADPNFDRLIAECQQLKEERQVDPLNEDVLLAMEDMGLDKEQTLQSLRSDAYDHYSAIYSLLCDRHKRHKTLRLGALPSMPRALAFQAPVNIQAEQAGTAMNISVPQVQLINPENQIVEPDGTLNLDSDEGEEPSPEALVRYLSMRRHTVGVADPRTEVMEDLQKLLPGFPGVNPQAPFLQVAPNVNFMHNLLPMQNLQPTGQLEYKEQSLLQPPTLQLLNGMGPLGRRASDGGANIQLHAQQLLKRPRGPSPLVTMTPAVPAVTPVDEESSDGEPDQEAVQSSTYKDSNTLHLPTERFSPVRRFSDGAASIQAFKAHLEKMGNNSSIKQLQQECEQLQKMYGGQIDERTLEKTQQQHMLYQQEQHHQILQQQIQDSICPPQPSPPLQAACENQPALLTHQLQRLRIQPSSPPPNHPNNHLFRQPSNSPPPMSSAMIQPHGAASSSQFQGLPSRSAIFQQQPENCSSPPNVALTCLGMQQPAQSQQVTIQVQEPVDMLSNMPGTAAGSSGRGISISPSAGQMQMQHRTNLMATLSYGHRPLSKQLSADSAEAHSLNVNRFSPANYDQAHLHPHLFSDQSRGSPSSYSPSTGVGFSPTQALKVPPLDQFPTFPPSAHQQPPHYTTSALQQALLSPTPPDYTRHQQVPHILQGLLSPRHSLTGHSDIRLPPTEFAQLIKRQQQQRQQQQQQQQQQEYQELFRHMNQGDAGSLAPSLGGQSMTERQALSYQNADSYHHHTSPQHLLQIRAQECVSQASSPTPPHGYAHQPALMHSESMEEDCSCEGAKDGFQDSKSSSTLTKGCHDSPLLLSTGGPGDPESLLGTVSHAQELGIHPYGHQPTAAFSKNKVPSREPVIGNCMDRSSPGQAVELPDHNGLGYPARPSVHEHHRPRALQRHHTIQNSDDAYVQLDNLPGMSLVAGKALSSARMSDAVLSQSSLMGSQQFQDGENEECGASLGGHEHPDLSDGSQHLNSSCYPSTCITDILLSYKHPEVSFSMEQAGV [SIK3] | – | – | 0.04 | -0.387
MAAAAVSSAKRSLRGELKQRLRAMSAEERLRQSRVLSQKVIAHSEYQKSKRISIFLSMQDEIETEEIIKDIFQRGKICFIPRYRFQSNHMDMVRIESPEEISLLPKTSWNIPQPGEGDVREEALSTGGLDLIFMPGLGFDKHGNRLGRGKGYYDAYLKRCLQHQEVKPYTLALAFKEQICLQVPVNENDMKVDEVLYEDSSTA [MTHFS] | – | – | 0.0622 | 0.146
MAAATLTSKLYSLLFRRTSTFALTIIVGVMFFERAFDQGADAIYDHINEGKLWKHIKHKYENK [UQCR10] | – | – | 0.0588 | -0.233
MAADLNLEWISLPRSWTYGITRGGRVFFINEEAKSTTWLHPVTGEAVVTGHRRQSTDLPTGWEEAYTFEGARYYINHNERKVTCKHPVTGQPSQDNCIFVVNEQTVATMTSEEKKERPISMINEASNYNVTSDYAVHPMSPVGRTSRASKKVHNFGKRSNSIKRNPNAPVVRRGWLYKQDSTGMKLWKKRWFVLSDLCLFYYRDEKEEGILGSILLPSFQIALLTSEDHINRKYAFKAAHPNMRTYYFCTDTGKEMELWMKAMLDAALVQTEPVKRVDKITSENAPTKETNNIPNHRVLIKPEIQNNQKNKEMSKIEEKKALEAEKYGFQKDGQDRPLTKINSVKLNSLPSEYESGSACPAQTVHYRPINLSSSENKIVNVSLADLRGGNRPNTGPLYTEADRVIQRTNSMQQLEQWIKIQKGRGHEEETRGVISYQTLPRNMPSHRAQIMARYPEGYRTLPRNSKTRPESICSVTPSTHDKTLGPGAEEKRRSMRDDTMWQLYEWQQRQFYNKQSTLPRHSTLSSPKTMVNISDQTMHSIPTSPSHGSIAAYQGYSPQRTYRSEVSSPIQRGDVTIDRRHRAHHPKHVYVPDRRSVPAGLTLQSVSPQSLQGKTLSQDEGRGTLYKYRPEEVDIDAKLSRLCEQDKVVHALEEKLQQLHKEKYTLEQALLSASQEIEMHADNPAAIQTVVLQRDDLQNGLLSTCRELSRATAELERAWREYDKLEYDVTVTRNQMQEQLDHLGEVQTESAGIQRAQIQKELWRIQDVMEGLSKHKQQRGTTEIGMIGSKPFSTVKYKNEGPDYRLYKSEPELTTVAEVDESNGEEKSEPVSEIETSVVKGSHFPVGVVPPRAKSPTPESSTIASYVTLRKTKKMMDLRTERPRSAVEQLCLAESTRPRMTVEEQMERIRRHQQACLREKKKGLNVIGASDQSPLQSPSNLRDNPFRTTQTRRRDDKELDTAIRENDVKPDHETPATEIVQLKETEPQNVDFSKELKKTENISYEMLFEPEPNGVNSVEMMDKERNKDKMPEDVTFSPQDETQTANHKPEEHPEENTKNSVDEQEETVISYESTPEVSRGNQTMAVKSLSPSPESSASPVPSTQPQLTEGSHFMCV [PLEKHA5] | – | – | 0.0805 | -0.128
MAFIRKKQQEQQLQLYSKERFSLLLLNLEEYYFEQHRANHILHKGSHHERKIRGSLKICSKSVIFEPDSISQPIIKIPLRDCIKIGKHGENGANRHFTKAKSGGISLIFSQVYFIKEHNVVAPYKIERGKMEYVFELDVPGKVEDVVETLLQLHRASCLDKLGDQTAMITAILQSRLARTSFDKNRFQNISEKLHMECKAEMVTPLVTNPGHVCITDTNLYFQPLNGYPKPVVQITLQDVRRIYKRRHGLMPLGLEVFCTEDDLCSDIYLKFYEPQDRDDLYFYIATYLEHHVAEHTAESYMLQWQRGHLSNYQYLLHLNNLADRSCNDLSQYPVFPWIIHDYSSSELDLSNPGTFRDLSKPVGALNKERLERLLTRYQEMPEPKFMYGSHYSSPGYVLFYLVRIAPEYMLCLQNGRFDNADRMFNSIAETWKNCLDGATDFKELIPEFYGDDVSFLVNSLKLDLGKRQGGQMVDDVELPPWASSPEDFLQKSKDALESNYVSEHLHEWIDLIFGYKQKGSDAVGAHNVFHPLTYEGGVDLNSIQDPDEKVAMLTQILEFGQTPKQLFVTPHPRRITPKFKSLSQTSSYNASMADSPGEESFEDLTEESKTLAWNNITKLQLHEHYKIHKEAVTGITVSRNGSSVFTTSQDSTLKMFSKESKMLQRSISFSNMALSSCLLLPGDATVITSSWDNNVYFYSIAFGRRQDTLMGHDDAVSKICWHDNRLYSASWDSTVKVWSGVPAEMPGTKRHHFDLLAELEHDVSVDTISLNAASTLLVSGTKEGTVNIWDLTTATLMHQIPCHSGIVCDTAFSPDSRHVLSTGTDGCLNVIDVQTGMLISSMTSDEPQRCFVWDGNSVLSGSQSGELLVWDLLGAKISERIQGHTGAVTCIWMNEQCSSIITGGEDRQIIFWKLQY [NSMAF] | -0.603 | 0.514 | -0.221 | –
MASDSGNQGTLCTLEFAVQMTCQSCVDAVRKSLQGVAGVQDVEVHLEDQMVLVHTTLPSQEVQALLEGTGRQAVLKGMGSGQLQNLGAAVAILGGPGTVQGVVRFLQLTPERCLIEGTIDGLEPGLHGLHVHQYGDLTNNCNSCGNHFNPDGASHGGPQDSDRHRGDLGNVRADADGRAIFRMEDEQLKVWDVIGRSLIIDEGEDDLGRGGHPLSKITGNSGERLACGIIARSAGLFQNPKQICSCDGLTIWEERGRPIAGKGRKESAQPPAHL [CCS] | 0.914 | 0.694 | 0.0319 | –
MGLTISSLFSRLFGKKQMRILMVGLDAAGKTTILYKLKLGEIVTTIPTIGFNVETVEYKNICFTVWDVGGQDRIRPLWKHYFQNTQGLIFVVDSNDRERIQEVADELQKMLLVDELRDAVLLLFANKQDLPNAMAISEMTDKLGLQSLRNRTWYVQATCATQGTGLYEGLDWLSNELSKR [ARF4] | 4.99 | 6.18 | -0.374 | –
MYRTKVGLKDRQQLYKLIISQLLYDGYISIANGLINEIKPQSVCAPSEQLLHLIKLGMENDDTAVQYAIGRSDTVAPGTGIDLEFDADVQTMSPEASEYETCYVTSHKGPCRVATYSRDGQLIATGSADASIKILDTERMLAKSAMPIEVMMNETAQQNMENHPVIRTLYDHVDEVTCLAFHPTEQILASGSRDYTLKLFDYSKPSAKRAFKYIQEAEMLRSISFHPSGDFILVGTQHPTLRLYDINTFQCFVSCNPQDQHTDAICSVNYNSSANMYVTGSKDGCIKLWDGVSNRCITTFEKAHDGAEVCSAIFSKNSKYILSSGKDSVAKLWEISTGRTLVRYTGAGLSGRQVHRTQAVFNHTEDYVLLPDERTISLCCWDSRTAERRNLLSLGHNNIVRCIVHSPTNPGFMTCSDDFRARFWYRRSTTD [CSTF1] | -1.59 | -2.67 | -0.043 | –
S100A6 | – | – | 0.893 | –
SARS | – | – | -0.0633 | –
SLAIN2 | – | – | -0.187 | –
SNX27 | – | – | -0.11 | –
TACO1 | – | – | 0.0266 | –
TMEM263 | – | – | 0.0364 | –
TUFM | – | – | -0.0187 | –
VPS35 | – | – | -0.178 | –
